T1: FANCI (human, UniProt Q9NVI1 1-1328)
T1 sequence: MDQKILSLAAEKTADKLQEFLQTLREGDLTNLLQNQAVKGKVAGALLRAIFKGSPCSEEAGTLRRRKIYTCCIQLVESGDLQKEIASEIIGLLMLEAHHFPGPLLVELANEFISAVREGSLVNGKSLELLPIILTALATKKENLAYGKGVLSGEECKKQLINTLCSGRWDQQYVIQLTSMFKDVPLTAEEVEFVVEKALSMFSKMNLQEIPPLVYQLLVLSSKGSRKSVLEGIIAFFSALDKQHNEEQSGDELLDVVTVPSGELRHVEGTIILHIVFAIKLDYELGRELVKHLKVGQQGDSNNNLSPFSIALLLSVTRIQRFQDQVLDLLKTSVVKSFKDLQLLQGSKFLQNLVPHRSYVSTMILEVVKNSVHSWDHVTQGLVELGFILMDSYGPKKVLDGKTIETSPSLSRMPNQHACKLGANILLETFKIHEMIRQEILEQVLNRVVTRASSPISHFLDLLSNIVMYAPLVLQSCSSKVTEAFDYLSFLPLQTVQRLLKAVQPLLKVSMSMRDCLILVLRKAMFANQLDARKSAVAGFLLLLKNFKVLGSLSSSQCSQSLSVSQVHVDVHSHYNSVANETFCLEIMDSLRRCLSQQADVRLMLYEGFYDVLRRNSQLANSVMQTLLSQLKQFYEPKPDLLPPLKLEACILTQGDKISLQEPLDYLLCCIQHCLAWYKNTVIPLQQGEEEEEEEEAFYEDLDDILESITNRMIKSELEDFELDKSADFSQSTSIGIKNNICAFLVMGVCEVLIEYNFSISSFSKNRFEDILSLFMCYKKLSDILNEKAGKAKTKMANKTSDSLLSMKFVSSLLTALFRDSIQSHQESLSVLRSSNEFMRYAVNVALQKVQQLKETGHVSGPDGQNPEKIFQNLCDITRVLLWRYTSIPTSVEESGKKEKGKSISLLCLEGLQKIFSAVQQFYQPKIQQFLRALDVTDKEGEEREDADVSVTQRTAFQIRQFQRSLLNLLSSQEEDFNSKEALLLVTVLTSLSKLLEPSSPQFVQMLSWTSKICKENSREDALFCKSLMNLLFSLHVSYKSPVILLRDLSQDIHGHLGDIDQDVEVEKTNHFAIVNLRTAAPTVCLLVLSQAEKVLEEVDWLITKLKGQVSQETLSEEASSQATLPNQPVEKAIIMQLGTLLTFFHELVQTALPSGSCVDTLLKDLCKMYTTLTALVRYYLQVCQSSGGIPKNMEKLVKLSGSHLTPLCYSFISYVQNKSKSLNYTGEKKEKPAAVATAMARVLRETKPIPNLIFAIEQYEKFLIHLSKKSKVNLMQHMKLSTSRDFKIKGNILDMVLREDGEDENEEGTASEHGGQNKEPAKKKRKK

B1: FANCL (enzyme, human, UniProt Q9NW38-1 1-375, looked up)
chain: MAVTEASLLRQCPLLLPQNRSKTVYEGFISAQGRDFHLRIVLPEDLQLKNARLLCSWQLRTILSGYHRIVQQRMQHSPDLMSFMMELKMLLEVALKNRQELYALPPPPQFYSSLIEEIGTLGWDKLVYADTCFSTIKLKAEDASGREHLITLKLKAKYPAESPDYFVDFPVPFCASWTPQSSLISIYSQFLAAIESLKAFWDVMDEIDEKTWVLEPEKPPRSATARRIALGNNVSINIEVDPRHPTMLPECFFLGADHVVKPLGIKLSRNIHLWDPENSVLQNLKDVLEIDFPARAILEKSDFTMDCGICYAYQLDGTIPDQVCDNSQCGQPFHQICLYEWLRGLLTSRQSFNIIFGECPYCSKPITLKMSGRKH
B2: FANCA (natural protein, human, UniProt O15360-1 1-1455, looked up)
chain: MSDSWVPNSASGQDPGGRRRAWAELLAGRVKREKYNPERAQKLKESAVRLLRSHQDLNALLLEVEGPLCKKLSLSKVIDCDSSEAYANHSSSFIGSALQDQASRLGVPVGILSAGMVASSVGQICTAPAETSHPVLLTVEQRKKLSSLLEFAQYLLAHSMFSRLSFCQELWKIQSSLLLEAVWHLHVQGIVSLQELLESHPDMHAVGSWLFRNLCCLCEQMEASCQHADVARAMLSDFVQMFVLRGFQKNSDLRRTVEPEKMPQVTVDVLQRMLIFALDALAAGVQEESSTHKIVRCWFGVFSGHTLGSVISTDPLKRFFSHTLTQILTHSPVLKASDAVQMQREWSFARTHPLLTSLYRRLFVMLSAEELVGHLQEVLETQEVHWQRVLSFVSALVVCFPEAQQLLEDWVARLMAQAFESCQLDSMVTAFLVVRQAALEGPSAFLSYADWFKASFGSTRGYHGCSKKALVFLFTFLSELVPFESPRYLQVHILHPPLVPGKYRSLLTDYISLAKTRLADLKVSIENMGLYEDLSSAGDITEPHSQALQDVEKAIMVFEHTGNIPVTVMEASIFRRPYYVSHFLPALLTPRVLPKVPDSRVAFIESLKRADKIPPSLYSTYCQACSAAEEKPEDAALGVRAEPNSAEEPLGQLTAALGELRASMTDPSQRDVISAQVAVISERLRAVLGHNEDDSSVEISKIQLSINTPRLEPREHMAVDLLLTSFCQNLMAASSVAPPERQGPWAALFVRTMCGRVLPAVLTRLCQLLRHQGPSLSAPHVLGLAALAVHLGESRSALPEVDVGPPAPGAGLPVPALFDSLLTCRTRDSLFFCLKFCTAAISYSLCKFSSQSRDTLCSCLSPGLIKKFQFLMFRLFSEARQPLSEEDVASLSWRPLHLPSADWQRAALSLWTHRTFREVLKEEDVHLTYQDWLHLELEIQPEADALSDTERQDFHQWAIHEHFLPESSASGGCDGDLQAACTILVNALMDFHQSSRSYDHSENSDLVFGGRTGNEDIISRLQEMVADLELQQDLIVPLGHTPSQEHFLFEIFRRRLQALTSGWSVAASLQRQRELLMYKRILLRLPSSVLCGSSFQAEQPITARCEQFFHLVNSEMRNFCSHGGALTQDITAHFFRGLLNACLRSRDPSLMVDFILAKCQTKCPLILTSALVWWPSLEPVLLCRWRRHCQSPLPRELQKLQEGRQFASDFLSPEAASPAPNPDWLSAAALHFAIQQVREENIRKQLKKLDCEREELLVFLFFFSLMGLLSSHLTSNSTTDLPKAFHVCAAILECLEKRKISWLALFQLTESDLRLGRLLLRVAPDQHTRLLPFAFYSLLSYFHEDAAIREEAFLHVAVDMYLKLVQLFVAGDTSTVSPPAGRSLELKGQGNPVELITKARLFLLQLIPRCPKKSFSHVAELLADRGDCDPEVSAALQSRQQAAPDADLSQEPHLF
B3: FANCB-FAAP100 heterodimer (complex, human)
chain 1: MTSKQAMSSNEQERLLCYNGEVLVFQLSKGNFADKEPTKTPILHVRRMVFDRGTKVFVQKSTGFFTIKEENSHLKIMCCNCVSDFRTGINLPYIVIEKNKKNNVFEYFLLILHSTNKFEMRLSFKLGYEMKDGLRVLNGPLILWRHVKAFFFISSQTGKVVSVSGNFSSIQWAGEIENLGMVLLGLKECCLSEEECTQEPSKSDYAIWNTKFCVYSLESQEVLSDIYIIPPAYSSVVTYVHICATEIIKNQLRISLIALTRKNQLISFQNGTPKNVCQLPFGDPCAVQLMDSGGGNLFFVVSFISNNACAVWKESFQVAAKWEKLSLVLIDDFIGSGTEQVLLLFKDSLNSDCLTSFKITDLGKINYSSEPSDCNEDDLFEDKQENRYLVVPPLETGLKVCFSSFRELRQHLLLKEKIISKSYKALINLVQGKDDNTSSAEEKECLVPLCGEEENSVHILDEKLSDNFQDSEQLVEKIWYRVIDDSLVVGVKTTSSLKLSLNDVTLSLLMDQAHDSRFRLLKCQNRVIKLSTNPFPAPYLMPCEIGLEAKRVTLTPDSKKEESFVCEHPSKKECVQIITAVTSLSPLLTFSKFCCTVLLQIMERESGNCPKDRYVVCGRVFLSLEDLSTGKYLLTFPKKKPIEHMEDLFALLAAFHKSCFQITSPGYALNSMKVWLLEHMKCEIIKEFPEVYFCERPGSFYGTLFTWKQRTPFEGILIIYSRNQTVMFQCLHNLIRILPINCFLKNLKSGSENFLIDNMAFTLEKELVTLSSLSSAIAKHESNFMQRCEVSKGKSSVVAAALSDRRENIHPYRKELQREKKKMLQTNLKVSGALYREITLKVAEVQLKSDFAAQKLSNL
chain 2: MAGAAPRVRYLAGFCCPLGGLAAGKPRVLCHEAEVFLSTGSELVYVYDQEGGLLTAAFRFPDQVWHLELLAPRRLLYALCARRGLYCLSLDHPGRSRSTSQDDRDSEDGDQPSPVIPVDPDACILPDAALCAFTLLDSVLVTLVQGPARWKMQLFEQPCPGEDPRPGGQIGEVELSSYTPPAGVPGKPAAPHFLPVLCSVSPSGSRVPHDLLGGSGGFTLEDALFGLLFGADATLLQSPVVLCGLPDGQLCCVILKALVTSRSAPGDPNALVKILHHLEEPVIFIGALKTEPQAAEAAENFLPDEDVHCDCLVAFGHHGRMLAIKASWDESGKLVPELREYCLPGPVLCAACGGGGRVYHSTPSDLCVVDLSRGSTPLGPEQPEEGPGGLPPMLCPASLNICSVVSLSASPRTHEGGTKLLALSAKGRLMTCSLDLDSEMPGPARMTTESAGQKIKELLSGIGNISERVSFLKKAVDQRNKALTSLNEAMNVSCALLSSGTGPRPISCTTSTTWSRLQTQDVLMATCVLENSSSFSLDQGWTLCIQVLTSSCALDLDSACSAITYTIPVDQLGPGARREVTLPLGPGENGGLDLPVTVSCTLFYSLREVVGGALAPSDSEDPFLDECPSDVLPEQEGVCLPLSRHTVDMLQCLRFPGLAPPHTRAPSPLGPTRDPVATFLETCREPGSQPAGPASLRAEYLPPSVASIKVSAELLRAALKDGHSGVPLCCATLQWLLAENAAVDVVRARALSSIQGVAPDGANVHLIVREVAMTDLCPAGPIQAVEIQVESSSLADICRAHHAVVGRMQTMVTEQATQGSSAPDLRVQYLRQIHANHETLLREVQTLRDRLCTEDEASSCATAQRLLQVYRQLRHPSLILL
B4: UBE2T (enzyme, human)
chain: MQRASRLKRELHMLATEPPPGITCWQDKDQMDDLRAQILGGANTPYEKGVFKLEVIIPERYPFEPPQIRFLTPIYHPNIDSAGRICLDVLKLPPKGAWRPSLNIATVLTSIQLLMSEPNPDDPLMADISSEFKYNKPAFLKNARQWTEKHARQKQKADEEEMLDNLPEAGDSRVHNSTQKRKASQLVGIEKKFHPDV

Key:
Experiment in all cases: cryo-EM structure
[1] = target: FA Core complex (human | human (endogenous in HEK-293F)) (UniProt O15360)
FANCI = target: T1, FANCI
cryo-EM structure = target: the molecule itself
FANCL = target: B1

binding result (FANCI)	Molecule	stoichiometry N (cryo-EM structure)	also measured
–	FANCI-FANCD2 (ID) complex (from UniProt Q9NVI1 1-1328; Q9BXW9 1-1451)	–	percent of Core particles with bound ID [1]: 63%
binds	B1	–	–
–	B2	2	–
–	B3	2	–
binds	B4	–	binding result (FANCL): binds

From article PMC8378520 (Nature structural & molecular biology, 2021)
